# From article PMC9482650, “Quantitative fragmentomics allow affinity mapping of interactomes” (Nature Communications, 2022)
# T1: TIAM2, Q8IVF5
# T1 sequence (Q8IVF5 885-986, limits assumed, looked up): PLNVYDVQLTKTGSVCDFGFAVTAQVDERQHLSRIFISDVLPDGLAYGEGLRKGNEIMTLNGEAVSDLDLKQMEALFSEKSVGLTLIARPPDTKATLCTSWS
# T2: TJP3_3, O95049
# T2 sequence (O95049 375-456, limits assumed, looked up): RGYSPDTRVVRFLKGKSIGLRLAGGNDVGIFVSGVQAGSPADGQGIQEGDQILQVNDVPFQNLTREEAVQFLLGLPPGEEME
# T3: GRIP1_2, Q9Y3R0
# T3 sequence (Q9Y3R0 145-248, limits assumed, looked up): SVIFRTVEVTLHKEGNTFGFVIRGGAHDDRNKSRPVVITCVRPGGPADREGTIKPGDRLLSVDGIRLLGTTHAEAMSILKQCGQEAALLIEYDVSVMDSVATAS
# T4: PTPN13_1, Q12923
# T4 sequence (Q12923 1088-1188, limits assumed, looked up): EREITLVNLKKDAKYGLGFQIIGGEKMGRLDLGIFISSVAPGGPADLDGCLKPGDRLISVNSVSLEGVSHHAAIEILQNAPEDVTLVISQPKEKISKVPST
# T5: APBA2_1, Q99767
# T5 sequence (Q99767 563-664, limits assumed, looked up): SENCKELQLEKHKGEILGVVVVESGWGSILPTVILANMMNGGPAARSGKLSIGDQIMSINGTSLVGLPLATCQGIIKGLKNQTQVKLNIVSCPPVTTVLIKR
# T6: PDZD7_3, Q9H5P4
# T6 sequence (Q9H5P4 857-944, limits assumed, looked up): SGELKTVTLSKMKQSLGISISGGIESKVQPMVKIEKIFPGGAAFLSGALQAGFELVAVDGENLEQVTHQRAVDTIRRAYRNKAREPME
# T7: DFNB31_3, Q9P202
# T7 sequence (Q9P202 811-907, limits assumed, looked up): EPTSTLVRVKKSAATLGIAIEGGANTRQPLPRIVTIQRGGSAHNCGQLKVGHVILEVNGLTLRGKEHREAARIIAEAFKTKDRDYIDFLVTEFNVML
# T8: SYNJ2BP, P57105
# T8 sequence (P57105 8-110, limits assumed, looked up): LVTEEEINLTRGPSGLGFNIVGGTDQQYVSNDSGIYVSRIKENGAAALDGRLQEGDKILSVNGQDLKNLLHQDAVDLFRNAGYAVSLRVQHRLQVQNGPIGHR
# T9: PDZRN3_1, Q9UPQ7
# T9 sequence (Q9UPQ7 244-349, limits assumed, looked up): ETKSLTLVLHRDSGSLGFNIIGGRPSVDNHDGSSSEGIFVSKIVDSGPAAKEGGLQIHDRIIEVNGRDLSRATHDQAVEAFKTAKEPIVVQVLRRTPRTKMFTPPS
# T10: SNTB1, Q13884
# T10 sequence (Q13884 107-205, limits assumed, looked up): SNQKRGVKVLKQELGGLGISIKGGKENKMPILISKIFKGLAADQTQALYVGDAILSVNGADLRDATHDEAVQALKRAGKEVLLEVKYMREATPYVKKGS
# T11: APBA3_1, O96018
# T11 sequence (O96018 389-490, limits assumed, looked up): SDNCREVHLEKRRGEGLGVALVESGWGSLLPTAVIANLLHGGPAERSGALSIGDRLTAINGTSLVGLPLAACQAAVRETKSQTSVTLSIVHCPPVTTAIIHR
# What was measured:
# Assay in all cases: holdup assay
# Design in all cases: key: below the threshold = too weak to quantify, mostly under pKd 3.1 to 4
# Conditions in all cases: plain residues with an end cap or a label only (N-terminal biotin on a linker: ttds)
# GIPC2, Q8TF65 = molecular target: GIPC2, Q8TF65
# DLG2_3, Q15700 = molecular target: DLG2_3, Q15700
# PICK1, Q9NRD5 = molecular target: PICK1, Q9NRD5
# TIAM2, Q8IVF5 = molecular target: T1, TIAM2, Q8IVF5
# PDZRN4_1, Q6ZMN7 = molecular target: PDZRN4_1, Q6ZMN7
# TJP3_3, O95049 = molecular target: T2, TJP3_3, O95049
# FRMPD2_2, Q68DX3 = molecular target: FRMPD2_2, Q68DX3
# Inadl_2, Q8NI35 = molecular target: Inadl_2, Q8NI35
# NHERF4_2, Q86UT5 = molecular target: NHERF4_2, Q86UT5
# GRIP1_2, Q9Y3R0 = molecular target: T3, GRIP1_2, Q9Y3R0
# DLG4_2, P78352 = molecular target: DLG4_2, P78352
# PTPN13_1, Q12923 = molecular target: T4, PTPN13_1, Q12923
# SCRIB_2, Q14160 = molecular target: SCRIB_2, Q14160
# FRMPD2_3, Q68DX3 = molecular target: FRMPD2_3, Q68DX3
# GRIP2_7, Q9C0E4 = molecular target: GRIP2_7, Q9C0E4
# PTPN3, P26045 = molecular target: PTPN3, P26045
# APBA2_1, Q99767 = molecular target: T5, APBA2_1, Q99767
# PDZD7_3, Q9H5P4 = molecular target: T6, PDZD7_3, Q9H5P4
# DFNB31_3, Q9P202 = molecular target: T7, DFNB31_3, Q9P202
# SYNJ2BP, P57105 = molecular target: T8, SYNJ2BP, P57105
# Inadl_1, Q8NI35 = molecular target: Inadl_1, Q8NI35
# PDZRN3_1, Q9UPQ7 = molecular target: T9, PDZRN3_1, Q9UPQ7
# SNTB1, Q13884 = molecular target: T10, SNTB1, Q13884
# MAGI2_6, Q86UL8 = molecular target: MAGI2_6, Q86UL8
# APBA3_1, O96018 = molecular target: T11, APBA3_1, O96018
# GORASP1, Q9BQQ3 = molecular target: GORASP1, Q9BQQ3
# Sequence of GORASP1, Q9BQQ3 (Q9BQQ3 1-208): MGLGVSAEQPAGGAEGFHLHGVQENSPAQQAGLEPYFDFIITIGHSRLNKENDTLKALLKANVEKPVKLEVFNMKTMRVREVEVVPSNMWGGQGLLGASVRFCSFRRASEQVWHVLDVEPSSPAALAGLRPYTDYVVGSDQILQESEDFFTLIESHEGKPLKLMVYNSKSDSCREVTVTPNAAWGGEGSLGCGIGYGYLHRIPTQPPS
# Sequence of PTPN3, P26045 (P26045 505-587): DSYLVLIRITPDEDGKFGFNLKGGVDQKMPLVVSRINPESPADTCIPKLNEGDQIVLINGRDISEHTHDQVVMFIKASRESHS
# Sequence of FRMPD2_2, Q68DX3 (Q68DX3 944-1038): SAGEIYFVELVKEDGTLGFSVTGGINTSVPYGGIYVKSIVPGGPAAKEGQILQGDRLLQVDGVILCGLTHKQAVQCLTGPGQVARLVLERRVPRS
# Sequence of NHERF4_2, Q86UT5 (Q86UT5 220-308): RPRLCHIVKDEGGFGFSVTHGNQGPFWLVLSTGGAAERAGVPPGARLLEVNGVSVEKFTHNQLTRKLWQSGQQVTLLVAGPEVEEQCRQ
# Sequence of Inadl_1, Q8NI35 (Q8NI35 113-229): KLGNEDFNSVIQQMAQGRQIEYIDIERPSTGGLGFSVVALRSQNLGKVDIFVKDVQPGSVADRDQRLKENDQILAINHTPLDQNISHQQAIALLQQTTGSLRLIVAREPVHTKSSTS
# Sequence of GRIP2_7, Q9C0E4 (Q9C0E4 934-1023): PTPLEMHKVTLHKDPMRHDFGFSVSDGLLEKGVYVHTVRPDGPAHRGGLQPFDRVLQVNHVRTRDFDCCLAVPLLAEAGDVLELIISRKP
# Sequence of MAGI2_6, Q86UL8 (Q86UL8 1141-1229): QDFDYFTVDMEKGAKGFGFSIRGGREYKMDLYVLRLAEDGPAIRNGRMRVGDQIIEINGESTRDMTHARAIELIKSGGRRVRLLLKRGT
# Sequence of FRMPD2_3, Q68DX3 (Q68DX3 1073-1166): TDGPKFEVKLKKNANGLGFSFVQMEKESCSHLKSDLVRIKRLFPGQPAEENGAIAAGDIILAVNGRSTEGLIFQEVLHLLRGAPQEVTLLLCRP
# Sequence of PDZRN4_1, Q6ZMN7 (Q6ZMN7 213-318): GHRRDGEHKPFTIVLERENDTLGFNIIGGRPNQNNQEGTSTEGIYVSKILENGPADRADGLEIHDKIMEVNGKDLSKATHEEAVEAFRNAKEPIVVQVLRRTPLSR
# Sequence of PICK1, Q9NRD5 (Q9NRD5 17-115): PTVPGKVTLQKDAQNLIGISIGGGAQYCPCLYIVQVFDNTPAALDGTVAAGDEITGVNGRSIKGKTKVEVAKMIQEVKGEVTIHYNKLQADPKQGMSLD
# Sequence of GIPC2, Q8TF65 (Q8TF65 112-203): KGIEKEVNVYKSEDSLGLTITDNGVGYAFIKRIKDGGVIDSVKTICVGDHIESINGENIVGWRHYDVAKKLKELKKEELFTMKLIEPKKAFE
# Sequence of Inadl_2, Q8NI35 (Q8NI35 238-335): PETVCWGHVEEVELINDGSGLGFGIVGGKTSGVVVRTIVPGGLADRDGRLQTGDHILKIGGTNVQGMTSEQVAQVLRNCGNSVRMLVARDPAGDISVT
# Sequence of SCRIB_2, Q14160 (Q14160 857-960): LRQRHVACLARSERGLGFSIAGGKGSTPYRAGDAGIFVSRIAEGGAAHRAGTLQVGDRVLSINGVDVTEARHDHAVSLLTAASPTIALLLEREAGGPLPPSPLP
# Sequence of DLG4_2, P78352 (P78352 155-259): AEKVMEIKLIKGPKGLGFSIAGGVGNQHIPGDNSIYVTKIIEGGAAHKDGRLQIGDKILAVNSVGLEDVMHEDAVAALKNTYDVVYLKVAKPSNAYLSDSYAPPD
binder,measurement,setting,value
"GRLLGLETNV [ARHGEF26, Q96DR7]",pKd,"GIPC2, Q8TF65",below the threshold
same,pKd,"DLG2_3, Q15700",4.54
same,pKd,"PICK1, Q9NRD5",below the threshold
same,pKd,"TIAM2, Q8IVF5",below the threshold
same,pKd,"PDZRN4_1, Q6ZMN7",3.48
same,pKd,"TJP3_3, O95049",below the threshold
same,pKd,"FRMPD2_2, Q68DX3",4.22
same,pKd,"Inadl_2, Q8NI35",below the threshold
same,pKd,"NHERF4_2, Q86UT5",below the threshold
same,pKd,"GRIP1_2, Q9Y3R0",below the threshold
same,pKd,"DLG4_2, P78352",4.85
same,pKd,"PTPN13_1, Q12923",below the threshold
same,pKd,"SCRIB_2, Q14160",4.29
same,pKd,"FRMPD2_3, Q68DX3",below the threshold
same,pKd,"GRIP2_7, Q9C0E4",below the threshold
same,pKd,"PTPN3, P26045",4.69
same,pKd,"APBA2_1, Q99767",below the threshold
same,pKd,"PDZD7_3, Q9H5P4",4.11
same,pKd,"DFNB31_3, Q9P202",below the threshold
same,pKd,"SYNJ2BP, P57105",4.86
same,pKd,"Inadl_1, Q8NI35",below the threshold
same,pKd,"PDZRN3_1, Q9UPQ7",3.59
same,pKd,"SNTB1, Q13884",4.79
same,pKd,"MAGI2_6, Q86UL8",4.39
same,pKd,"APBA3_1, O96018",below the threshold
same,pKd,"GORASP1, Q9BQQ3",below the threshold
"QRPYRRESEI [KCNJ12, Q14500]",pKd,"GIPC2, Q8TF65",below the threshold
same,pKd,"DLG2_3, Q15700",4.65
same,pKd,"PICK1, Q9NRD5",below the threshold
same,pKd,"TIAM2, Q8IVF5",below the threshold
same,pKd,"PDZRN4_1, Q6ZMN7",4.18
same,pKd,"TJP3_3, O95049",below the threshold
same,pKd,"FRMPD2_2, Q68DX3",below the threshold
same,pKd,"Inadl_2, Q8NI35",below the threshold
same,pKd,"NHERF4_2, Q86UT5",below the threshold
same,pKd,"GRIP1_2, Q9Y3R0",below the threshold
same,pKd,"DLG4_2, P78352",4.56
same,pKd,"PTPN13_1, Q12923",below the threshold
same,pKd,"SCRIB_2, Q14160",3.56
same,pKd,"FRMPD2_3, Q68DX3",below the threshold
same,pKd,"GRIP2_7, Q9C0E4",below the threshold
same,pKd,"PTPN3, P26045",4.65
same,pKd,"APBA2_1, Q99767",below the threshold
same,pKd,"PDZD7_3, Q9H5P4",4.57
same,pKd,"DFNB31_3, Q9P202",below the threshold
same,pKd,"SYNJ2BP, P57105",5.17
same,pKd,"Inadl_1, Q8NI35",below the threshold
same,pKd,"PDZRN3_1, Q9UPQ7",4.68
same,pKd,"SNTB1, Q13884",3.86
same,pKd,"MAGI2_6, Q86UL8",below the threshold
same,pKd,"APBA3_1, O96018",below the threshold
same,pKd,"GORASP1, Q9BQQ3",below the threshold
